The target of assay [1] is T1, KIR3DL2 recombinant protein (R&D Systems) (human, UniProt P43630 28-340).
T1 construct: Bought protein; also called rec KIR3DL2; recombinant KIR3DL2-Fc fusion protein; not shown: Fc part of the bought fusion protein; not described
Kind of assay: SPR (Biacore T100), antibody injected over immobilised recombinant KIR3DL2, bivalent affinity, pH 7.2.

In assay [2] the target is T2, KIR3DL2 on fresh Sezary Syndrome cells of patients (human, UniProt P43630 22-455).
T2 construct: whole, on cells; also called SS cells
Kind of assay: flow cytometry of whole blood of a Sezary Syndrome patient, antibody + GaM-PE against CD4; upper gate (CD4+ KIR3DL2+ leukemic Sezary cells). Background: Flow cytometry measures light scatter and fluorescence of single cells or particles in a stream.

The target of assay [3] is T3, NK cells, including normal KIR3DL2+ NK cells (Homo sapiens, UniProt P43630).
T3 construct: full-length receptor on the cell surface; also called gate NK GaM PE+; KIR3DL2 on CD4-negative NK cells in the blood of the Sezary Syndrome patient
Kind of assay: flow cytometry of whole blood of a Sezary Syndrome patient, antibody + GaM-PE against CD4; lower gate (CD4-negative NK cells).

Assay [4] has as its target T1, KIR3DL2 recombinant protein (R&D …). Kind of assay: SCK kinetic method.
In assay [5] the target is T4, KIR2DL3 on transfected BWZ cells (UniProt P43628 22-341, limits assumed).
T4 construct: whole, on cells
Kind of assay: flow cytometry on transfected BWZ cells.

Assay [6] deals with T5, KIR2DS1 on transfected BWZ cells (UniProt Q14954 22-304, limits assumed).
T5 construct: whole, on cells; also called BWZ-KIR2DS1
Kind of assay: flow cytometry on transfected BWZ cells.

For assay [7], the target named is T6, KIR2DL1 on transfected BWZ cells (UniProt P43626 22-348, limits assumed).
T6 construct: whole, on cells
Kind of assay: flow cytometry on transfected BWZ cells.

The target in assay [8] is T7, KIR2DS2 on transfected BWZ cells (UniProt P43631 22-304, limits assumed).
T7 construct: whole, on cells
Kind of assay: flow cytometry on transfected BWZ cells.

For assay [9], the target named is T8, KIR2DS4 on transfected BWZ cells (UniProt P43632 22-304, limits assumed).
T8 construct: whole, on cells
Kind of assay: flow cytometry on transfected BWZ cells.

Assay [10] concerns the target T9, KIR3DL2 at the surface of HUT78 Sezary Syndrome cell line (human, UniProt P43630 22-455).
T9 construct: whole, on cells; Two alleles are expressed
Kind of assay: flow cytometry competition on HUT78 cells; naked antibody titrated against 15C11-PE (5 µg/ml).

Assay [11] has as its target T10, KIR3DL1 expressed on cells (human, UniProt P43629 22-444).
T10 construct: also called HEK-293T/KIR3DL1
Kind of assay: flow cytometry on HEK KIR3DL1 cells (row HEK-KIR3DL1).

For assay [12], the target named is T11, KIR3DL2 mutant M11A4 (E130S;H131S;R145S) (human, UniProt P43630 22-455).
T11 construct: Expressed on transfected HEK-293T cells; also called Number 27 (11A4)
Kind of assay: flow cytometry on HEK-293T cells transfected with the mutant; - means substantially complete loss of binding.

Assay [13] addresses T12, KIR3DL2 mutant M11A6 (I150A;M128A) (human, UniProt P43630 22-455).
T12 construct: Expressed on transfected HEK-293T cells; also called Number 29 (11A6)
The description is as above.

Assay [14] addresses T13, KIR3DL2 mutant M9 (L164M;P166L;V167A) (human, UniProt P43630 22-455).
T13 construct: Expressed on transfected HEK-293T cells; also called Number 9
Kind of assay: flow cytometry on HEK-293T cells transfected with the mutant; + no significant loss of binding, ± decrease.

Assay [15] concerns the target T14, KIR3DL2 mutant M10 (R136K;E141K) (human, UniProt P43630 22-455).
T14 construct: Expressed on transfected HEK-293T cells; also called Number 10
The assay is described as above.

Assay [16] deals with T15, KIR3DL2 mutant M11A3 (N99S;H100S;Q184A) (human, UniProt P43630 22-455).
T15 construct: Expressed on transfected HEK-293T cells; also called Number 26 (11A3)
Described as above.

The target in assay [17] is T16, KIR3DL2 mutant M8 + 11 (V127I;P179T;S181T) (human, UniProt P43630 22-455).
T16 construct: Expressed on transfected HEK-293T cells; also called Number 23 (8 + 11)
Described as above.

Assay [18] deals with T17, KIR3DL2 mutant M7 (L113V;T118R) (human, UniProt P43630 22-455).
T17 construct: Expressed on transfected HEK-293T cells; also called Number 7
The assay is described as above.

Assay [19] deals with T18, KIR3DL2 mutant M11A1 (V178A;H180S) (human, UniProt P43630 22-455).
T18 construct: Expressed on transfected HEK-293T cells; also called Number 24 (11A1); mutant 11A1
The description is as above.

Assay [20] concerns the target T19, KIR3DL2 mutant M11A5 (V147A;Q149S) (human, UniProt P43630 22-455).
T19 construct: Expressed on transfected HEK-293T cells; also called Number 28 (11A5)
The assay is described as above.

Assay [21] addresses T20, KIR3DL2 mutant M11 (P179T;S181T) (human, UniProt P43630 22-455).
T20 construct: Expressed on transfected HEK-293T cells; also called Number 11; mutant 11
The description is as above.

Data on one molecule can be found in US20150291692A1 (INNATE PHARMA, published 2015).

Usually koff stands for the rate constant with which the complex falls apart.

T1 sequence (P43630 28-340 A108T): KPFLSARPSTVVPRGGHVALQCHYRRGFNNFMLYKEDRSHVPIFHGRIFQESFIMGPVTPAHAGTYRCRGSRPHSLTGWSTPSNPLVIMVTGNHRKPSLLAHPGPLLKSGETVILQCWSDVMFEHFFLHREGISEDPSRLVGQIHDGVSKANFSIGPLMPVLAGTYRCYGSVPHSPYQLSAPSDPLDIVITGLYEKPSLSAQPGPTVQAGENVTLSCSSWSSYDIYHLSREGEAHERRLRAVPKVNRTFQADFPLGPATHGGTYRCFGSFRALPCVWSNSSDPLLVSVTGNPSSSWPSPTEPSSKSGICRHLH
T15 sequence (P43630 22-455 N120S/H121S/Q205A): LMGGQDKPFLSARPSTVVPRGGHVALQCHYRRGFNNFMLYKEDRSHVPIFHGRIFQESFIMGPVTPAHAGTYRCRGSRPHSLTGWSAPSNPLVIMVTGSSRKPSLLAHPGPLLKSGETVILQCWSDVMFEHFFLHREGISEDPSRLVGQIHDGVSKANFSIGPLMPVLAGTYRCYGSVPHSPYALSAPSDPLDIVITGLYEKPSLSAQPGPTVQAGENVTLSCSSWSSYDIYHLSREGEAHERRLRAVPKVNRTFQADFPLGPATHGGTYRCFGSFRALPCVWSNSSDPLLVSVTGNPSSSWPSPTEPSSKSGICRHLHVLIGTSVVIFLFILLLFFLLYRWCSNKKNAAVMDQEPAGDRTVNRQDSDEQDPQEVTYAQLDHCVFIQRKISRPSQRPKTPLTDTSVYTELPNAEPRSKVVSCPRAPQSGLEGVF
T17 sequence (P43630 22-455 L134V/T139R): as the sequence (P43630 22-455 N120S/H121S/Q205A) above, with S99N, S100H, L113V, T118R, A184Q counted along it
T7 sequence (P43631 22-304 limits assumed): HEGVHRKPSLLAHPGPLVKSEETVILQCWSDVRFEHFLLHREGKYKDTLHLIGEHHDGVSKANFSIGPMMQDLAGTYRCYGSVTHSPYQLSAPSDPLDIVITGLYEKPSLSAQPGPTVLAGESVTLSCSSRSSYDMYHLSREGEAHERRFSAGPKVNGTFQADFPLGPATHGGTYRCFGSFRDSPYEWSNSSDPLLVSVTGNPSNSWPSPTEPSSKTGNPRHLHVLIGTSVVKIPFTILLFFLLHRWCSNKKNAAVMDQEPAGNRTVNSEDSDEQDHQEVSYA
T13 sequence (P43630 22-455 L185M/P187L/V188A): as the sequence (P43630 22-455 N120S/H121S/Q205A) above, with S99N, S100H, L164M, P166L, V167A, A184Q counted along it
T6 sequence (P43626 22-348 limits assumed): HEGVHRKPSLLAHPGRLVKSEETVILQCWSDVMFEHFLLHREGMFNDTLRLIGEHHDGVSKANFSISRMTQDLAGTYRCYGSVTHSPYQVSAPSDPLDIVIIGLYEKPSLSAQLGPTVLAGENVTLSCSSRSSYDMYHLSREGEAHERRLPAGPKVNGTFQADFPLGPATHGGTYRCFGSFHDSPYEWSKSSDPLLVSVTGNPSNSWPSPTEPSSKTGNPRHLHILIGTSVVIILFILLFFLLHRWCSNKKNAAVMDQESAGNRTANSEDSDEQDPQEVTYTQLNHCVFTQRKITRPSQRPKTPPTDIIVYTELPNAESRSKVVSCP
T12 sequence (P43630 22-455 M149A/I171A): as the sequence (P43630 22-455 N120S/H121S/Q205A) above, with S99N, S100H, M128A, I150A, A184Q counted along it
T8 sequence (P43632 22-304 limits assumed): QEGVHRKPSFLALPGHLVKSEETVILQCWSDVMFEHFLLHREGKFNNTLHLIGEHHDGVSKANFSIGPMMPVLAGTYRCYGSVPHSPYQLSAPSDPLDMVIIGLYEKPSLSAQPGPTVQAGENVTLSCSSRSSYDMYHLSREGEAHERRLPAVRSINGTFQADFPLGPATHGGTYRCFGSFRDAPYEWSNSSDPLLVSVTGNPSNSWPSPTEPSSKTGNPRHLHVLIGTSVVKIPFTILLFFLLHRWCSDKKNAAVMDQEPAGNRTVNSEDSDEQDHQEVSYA
T20 sequence (P43630 22-455 P200T/S202T): as the sequence (P43630 22-455 N120S/H121S/Q205A) above, with S99N, S100H, P179T, S181T, A184Q counted along it
T14 sequence (P43630 22-455 R157K/E162K): as the sequence (P43630 22-455 N120S/H121S/Q205A) above, with S99N, S100H, R136K, E141K, A184Q counted along it
T16 sequence (P43630 22-455 V148I/P200T/S202T): as the sequence (P43630 22-455 N120S/H121S/Q205A) above, with S99N, S100H, V127I, P179T, S181T, A184Q counted along it
T10 sequence (P43629 22-444 limits assumed): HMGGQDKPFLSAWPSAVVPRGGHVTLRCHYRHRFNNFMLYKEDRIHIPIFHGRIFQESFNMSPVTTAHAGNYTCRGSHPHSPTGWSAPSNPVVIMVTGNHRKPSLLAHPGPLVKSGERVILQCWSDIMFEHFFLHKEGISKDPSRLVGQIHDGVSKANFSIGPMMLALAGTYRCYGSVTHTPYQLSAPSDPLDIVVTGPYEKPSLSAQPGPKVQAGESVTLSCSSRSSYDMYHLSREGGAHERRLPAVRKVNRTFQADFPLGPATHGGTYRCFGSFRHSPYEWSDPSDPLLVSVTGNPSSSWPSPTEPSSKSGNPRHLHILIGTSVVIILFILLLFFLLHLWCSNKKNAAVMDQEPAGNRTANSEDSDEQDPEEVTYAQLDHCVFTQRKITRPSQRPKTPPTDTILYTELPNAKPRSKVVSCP
T11 sequence (P43630 22-455 E151S/H152S/R166S): as the sequence (P43630 22-455 N120S/H121S/Q205A) above, with S99N, S100H, E130S, H131S, R145S, A184Q counted along it
T18 sequence (P43630 22-455 V199A/H201S): as the sequence (P43630 22-455 N120S/H121S/Q205A) above, with S99N, S100H, V178A, H180S, A184Q counted along it
T19 sequence (P43630 22-455 V168A/Q170S): as the sequence (P43630 22-455 N120S/H121S/Q205A) above, with S99N, S100H, V147A, Q149S, A184Q counted along it
T2 sequence (P43630 22-455): as the sequence (P43630 22-455 N120S/H121S/Q205A) above, with S99N, S100H, A184Q counted along it
T3 sequence (P43630 22-455 limits assumed): as the sequence (P43630 22-455 N120S/H121S/Q205A) above, with S99N, S100H, A184Q counted along it
T9 sequence (P43630 22-455): as the sequence (P43630 22-455 N120S/H121S/Q205A) above, with S99N, S100H, A184Q counted along it
T5 sequence (Q14954 22-304 limits assumed): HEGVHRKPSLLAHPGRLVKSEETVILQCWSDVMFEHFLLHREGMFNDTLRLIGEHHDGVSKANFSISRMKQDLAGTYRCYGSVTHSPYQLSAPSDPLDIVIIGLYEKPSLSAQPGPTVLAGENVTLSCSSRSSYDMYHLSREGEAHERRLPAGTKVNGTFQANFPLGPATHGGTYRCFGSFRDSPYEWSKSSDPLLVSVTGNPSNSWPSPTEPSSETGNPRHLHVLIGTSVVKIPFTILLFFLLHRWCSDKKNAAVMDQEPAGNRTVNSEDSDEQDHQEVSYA
T4 sequence (P43628 22-341 limits assumed): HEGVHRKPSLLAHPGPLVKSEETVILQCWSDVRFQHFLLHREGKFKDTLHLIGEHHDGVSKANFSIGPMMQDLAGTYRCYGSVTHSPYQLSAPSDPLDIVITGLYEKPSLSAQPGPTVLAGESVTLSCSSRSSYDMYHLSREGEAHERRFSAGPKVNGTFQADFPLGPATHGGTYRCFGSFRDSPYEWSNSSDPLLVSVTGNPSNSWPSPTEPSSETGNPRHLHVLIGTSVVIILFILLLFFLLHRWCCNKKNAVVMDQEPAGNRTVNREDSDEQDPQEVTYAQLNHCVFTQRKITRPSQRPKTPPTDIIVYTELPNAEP

B1: antibody 15C11 (antibody, mouse IgG2a, V domains shown)
VH: EVKLEESGGGLVQPGGSMKLSCAASGFTFSDAWMDWVRQSPEKGLEWVAEIRSKANNHATYYAESVKGRFTISRDDSKSSVYLRMNSLRAEDTGIYYCTGGYYPVYWGQGTLVTVSA
VL: DIQMTQSPSSLSASLGGKVTITCKASQDINKNIAWYQHKPGKGPRLLIHYTSTLQPGFPSRFSGSGSGRDYSFSISNLEPEDLATYYCLQYDNLLTFGGGTKLEIK
notes: also called M-K32-15C11; 15C11-PE (PE-labelled form)
Turning to B1, the Kd in assay [1] is 0.78 nM; in assay [4] it was 0.37 nM. For the same molecule, the “% of cells in gate CD4 GaM PE+” value in assay [2] turned out to be 7.6%. Further, in assay [3], the “% of cells in gate NK GaM PE+” value was determined as 12.7%. Further, in assay [4], the koff came out at 0.00011 s⁻¹. In addition, the binding result in [5] is reported as “no binding (tested: 10 µg/ml)”; in assay [6], “no binding (tested: 10 µg/ml)”; in [7], “no binding (tested: 10 µg/ml)”; in [8], “no binding (tested: 10 µg/ml)”; in assay [9], “no binding (tested: 10 µg/ml)”; in assay [11] it was “no binding”. Besides, the binding result is on record as “no binding” in assay [12]; “no binding” in assay [13]; “binds” in assay [14]; “binds” in assay [15]; “binds” in [16]; “binds” in assay [17]. Moreover, the binding result in [18], in [19], in assay [20] and in assay [21] was “binds” throughout. The “IC50 (read off the curve)” value in assay [10] was around 0.4 µg/mL.
